Experimental data reported in a protein production outcome set (Wang et al. 2014).

Assay: label from the status in PepcDB records

MTTPGKLNKARVPPYKTAGLGLVLVFALVVALVYLQFRGEFTPKTQLTMLSARAGLVMDPGSKVTYNGVEIGRVDTISEVTRDGESAAKFILDVDPRYIHLIPANVNADIKATTVFGGKYVSLTTPKNPTKRRITPKDVIDVRSVTTEINTLFQTLTSIAEKVDPVKLNLTLSAAAEALTGLGDKFGESIVNANTVLDDLNSRMPQSRHDIQQLAALGDVYADAAPDLFDFLDSSVTTARTINAQQAELDSALLAAAGFGNTTADVFDRGGPYLQRGVADLVPTATLLDTYSPELFCTIRNFYDADPLAKAAAGGGNGYSLRTNSEILSGIGISLLSPLALATNGAAIGIGLVAGLIASPLAVAANLAGALPGIVGGAPNPYTYPENLPRVNARGGPGGAPGCWQPITRDLWPAPYLVMDTGASLAPYNHMEVGSPYAVEYVWGRQVGDNTINP
protein production: failed

MTTRRLPRPCRFNPTIHVVLAVLALLLSGLAAFADLPALTGRVVDDAGIIDAGTRAALTQKLADFEKKGSDQIVVATIPSLGGEEIEPYANRLFRFWKLGQAGENNGVLLLVAKNDHKMRIEVGYGLEGTLTDLHTKLIIENDMVPAFRAGDFSGGISKAVDDMVMVLEGNPEELEARGKRNPADSSTPIDPIVTVFLILWATMFFGGLAMAFLPPMFGTKLSPGVYRWLGMTFRYGKGPSGSSGGSGWTTGSSGGGWSSGSSSSGWSSGSSSSGGGFSGGGGSSGGGGSSGSW
protein production: failed

MTTRTRNLYILMLANLLMSASMTMIMPFLSLYIETFGDYSNAYVQRWAGYIFGVTFLIAFIFSPIWGRIGDKHGYKGILILTSVGLSICIFLMGFAHSVTYLLILRIFMGVVTGFIGVSNAFIARQTPRNEAGKVLGTLQLGGVTGMLFGPLIGGAMADLFGFKDTFTITGIAMMVAALIVAFGVKEIRTEEQKEAAKVVYSRRAVLKQIFTLRVLFTVMVITALIQIANFSVQPLLALYVGDMTQSDNIAFLSGLAFSATGFGNLVMTRKWGQLGDKYGYEKILNILLIMAAVFVIPQAFATNLWVFIFFRFLFGIAIGGMVPCTTAYIRLAAPGVMQGEMLGYNQSARFLGNVIGPILGGTLAGFTGIPSVFLFMSFMFLVAFFILLYALRSDRKRHVNVD
protein production: failed

MTTSATSGTGPTANSMRRALKRARDGVALDVTEAAVLLQARGEDLDDLTASAARVRDAGLEAAGRAGVITYSKSVFIPLTRLCRDKCHYCTFVTVPGKLRRAGHGMFMSPDEVLDIARKGAALGCKEALITLGDKPEDRWPEAREWLDAHGYDDTIAYVRAISIRILEETGLLPHLNPGVMSWTDFQRLKPVAPSMGMMLETTATRLWSEPGGPHHGSPDKEPAVRLRVLEDAGRSSVPFTSGILIGIGETYEERAESLFALRKISRAYHGIQELIIQNFRAKPDTAMRGMPDAELDELIATVAVARHIMGPRACLQAPPNLVDSEYGRLIGAGIDDWGGVSPLTIDHVNPERPWPQIDLLREQSAQAGFELRERLCVYPEFVQRGEPWLDPRLLPHVRALADPASGLAHADATVEGHPWQEPEEAFVAQGRTDLHHSIDTEGRTGDRRDDFDVVYGDWEALREAAAPGMVPERIDTDVRQALATAANDPTRLTDAEALALLHADGPALDALTRIADDVRKAAVGDDVTYIVTRNINFTNVCYTGCRFCAFAQRRTDADAYTLSLEQVADRAQQAWDVGAVEVCMQGGIHPDLPGTAYFDIAKAVKERVPGMHVHAFSPMEVVNGATRTGLSIREWLTAAKEAGLDSIPGTAAEILDDEVRWVLTKGKLPTATWIEVITTAHELGIRSSSTMMYGHVDQPRHWLGHFRTLARIQQQTGGFTEFVTLPFIHTNAPVYLAGIARPGPTTRDNRAVMAMARLLLHPHIPNIQTSWVKLGTEGAAEMLRSGANDLGGTLMEETISRMAGSSYGSYKSVKDLIAVAEAAGRPAKPRTTLYGEVPQERQRAAAASDGHLPELLPVLD
protein production: failed

MTTTLTILTPTYNRAYILPKLYASLVEQTNKHFDWMVVDDGSTDNTEQLISEFIADGKINIVYIKQKNGGKHRALNTGAQSINSDYIFIVDSDDYLTNDAIDIILENSHYLKEKNLMGMTLLRGYAPDKVIGEKYPEDFMIKNFNQVRYNMGIKGDKAEVVSTKIFRETPFPEIPGERFMSEGVAWKQLAHKGDSLFINKIVYITEYLEDGLTHSGRLLLIKNPLGAMLNAKLAMTKEFSFKIREKNSLLYIAYGFFAKKKVREIITESGQRKLVRVNLLFGWMI
protein production: failed

MTTTPTTPATPTTPNAPTPDVTITVIVYNDAERLPRAVASLLRQTHPAIEIIISDDHSTDATPSVARELEASDPRIRYLRLPENSGGCSAPRNRALEIARAPYLMFLDSDDELPENAVALLLAAHREREVDFAMGAVERIRVDTGHRSTWMAHLVDERRTVDGIEAEPGLLFEHLATSKMYTRDFLDRHALRFPEGIHYEDQLFSAQAYCLAKSFTVIPQPVYRWYIAPYVAQDAASISNQRHKLSNVSDRIHVQTLIDDFLAESGHESLRQDKDYKFLKHDFRMYAGDLPYRDEDWLTGFARIVTPYLETLSPGAYALLPRAERVVLQLVRDGRLSEAQLAARGLGHSVAPRETTADDSGCLYWGPRLPSSDWARRELDVTELGLDSRPFPSAQFRHEITSVTPGRGMTVDLTIRTYDPGLRLPVGPQRASVVVAPGRRRLMVPFRLDPVRPGVFEGRVRVDLAAAPLPVQGFDGVRHPLLRLEQQGLANTGVLLAPLTFPTLRATRPGSLRHEVTVEPEGKAAGRLQIRWRPVGVTARVAGPVARKVAGPRVRRAARLVRSALR
protein production: failed

MTTVDSPRDANGPPRFAASGFATPRRPDDTDDTGDADETAATVPHRTRALTTPPRRKTIAAPCIDARTRRDRPARRATHARRALADFRAPAPPVARGTTRNRARRYACPSVDAVARTAPSPHAHRAAPARRPPSSEGAIMSEAVRMERDTFGEIAVPAARLWGAQTQRSLQNFKISTEKQSPELIHALALIKRAAAAVNLELGVLAQDKANAIVAAADEIIAGRHADEFPLAVWQTGSGTQTNMNLNEVIANRASELLGGERGESRAVHPNDDVNRGQSSNDVFPTAMHIAAARAIVDHLLPALRTLRATLDAKAAAFADIVKIGRTHLQDATPLTLGQEFSGYVAQLDQGIRHVEAALPHLYELAQGGTAVGTGLNAHPKFAAGVAAEIGRLTGLPFVSAPNKFEVMAAADALVFAHGALKTVAASLMKIANDIRWLASGPRCGLGELSIPENEPGSSIMPGKVNPTQSEAVTMLCCQVFGNDVAVNFGGASGNFELNVFRPMIAHNVLQSVRLLADGAQGFNDHCAVGIEPNRARIDALLNESLMLVTALNPHIGYDKAAQIAKKAHKEGTTLKAAALALGYVTDAQFDEWVRPEHMVGNR
protein production: not failed

MTTVSPDDSSPSTLTSLTFDDLTPGQSASLSRTLTQADLDLFATVSGNIDPSHFADPPAGTTLFPKAIGHGMWSASLISGVLGTRLPGPGTVYLAQDLRFRAPVTLGDTITASVTVREKRTERKTVVFECLCTNQNGVTVVSGTAEVIAPATHASVAAQALPGLQMIRHDRQAALLARCAGLPALPTAVIHPCDGPALQGAVEAAQRGLIEPILVGPSLLIAATAKALGLDISAFRLVEAANGAAAAATGVALVRAGEARAVMKGALHTDELMAAVVKRDGGLRTAGRISHVFLMTVPTYPKPLLITDAVVNIAPSLEDKVHIVQNAIDLARILGVETPKVAILSAVETINPKISSTVDAAALCKMAQRGQIRGGLLDGPLAFDNAISAEAAKTKGIVSEVAGQADILLVPDLESGNMLAKQLSFLAHADAAGIVLGTSAPVMLTSRADNLAARLASCALAVLIDAASRPRSTVLAAE
protein production: failed

MTTYTSIANVIKERRSVRTFTDKAVEKDLLIELLNDATWAPNHKHREPWNCKLYIGEGRKKLVDAVLNSFTEEERAKRGKILSDRFLSTPAQIVVYMNEDPRQIQRDEDYAATCAFMQNFQLLAWERGLGCVWKSGGLNYNPLFIEGIGLTRGQRIVGILHIGYFDKAPEGKARTPITEKMEIIEG
protein production: not failed

MTVEEAIALVEQLLSGTRLTKVQEIVFRQCWAGQTYSDIALESDYDLGYIKDVGSELWRSLSQALGEKVTKKNLYTVLKRAAKQNSINPSSSLQLPSLANYTDWGEAIDVSQFYGRTHDLATLSRWVLQDNCRVVSLLGMGGIGKTALSVKLAQQLQGQFEYVIWRSLRHAPSFSDKLTECIKILSNQQVTTLPASSHEQITYLIEYLRKSRCLLILDNFDTLLQDGKRAGSYRQGYEPYGELLWRLGETQHQSCVLITSREKPAQIAALEGDGLPVRTLALSGLEVAAGQTILTLKGLSGSEDQTRQLVECYGGNPLALKIAATSIRDLHEGSIANFLSEGTTVFQGIGHLLEDQFQRLSTLEQQLMYWLAINREKVSSTKLQTAFTSPLSKPKLIETLESLRWRSLIESNTGQFTQQPVVMEYVTDSLVEQVCQEIITESPQYLLTHALMQVQAKDYIRDSQINLIVCPILKQLQITLGSVHQLDLKLGRLIRKLQSKVIETVGYGGGNLLNLLAQLDTDLTGYDFSGLDMRECDLRTVNLHAVNFTQTTFRDCVFAATFGGITSVAFSRDGCQLATSDTSGVINIWDVNNGKQLFNCQEHNSWIWDVAFSSVAPVLASCGQDHTIKLWNTTTGECFNTLHGHTSIVTSVAFSPEGKLLASSSYDHSVKVWDLDTGECLQTFLGHDACVWSVVFHPVGQILATAGEDNTIKLWELQSGCCLKTLQGHQHWVKTIAFNSGGRILASGSFDQNVKLWDIHTGKCVMTLQGHTGVVTSVAFNPKDNLLLSGSYDQSVKVWDRKTGRCLDTLKKHTNRIWSVAFHPQGHLFVSGGDDHAAKIWELGTGQCIKTFQGHSNATYTIAHNWEHSLLASGHEDQTIKLWDLNLHSPHKSNVNTHPFRILQGHSNRVFSVVFSSTGQLLASGSADRTIKLWSPHTGQCLHTLHGHGSWVWAIAFSLDDKLLASGSYDHTVKIWDVSSGQCLQTLQGHPGSVLAVAFSCDGKTLFSSGYEKLVKQWDVETGYCLQTWEADSNRVWAVAVSRDNQYLATGGDDSVVRLWDIGKGVCVRTFSGHTSQVICILFTKDGRRMISSSSDRTIKIWNVSTGECLATLQAHDHWVWSLYLTPDEKTLLSSSWDETIKCWNISTGECWQTLRPARPYEGMIINEVVGLSQAQIATLKALGALEVN
protein production: failed

MTVGTYAELASVFAALSDETRWEILTELGRADQSASSLATRLPVSRQAIAKHLNALQACGLVESVKVGREIRYRALGAELNKTARTLERIGAEWDRRLAAIKQIAESMEE
protein production: not failed

MTVLRKQAREAGVYMKVVRNTLARRAVEGTEYECLTDTFTGPSLLAFSNEHPGAAARLFKDFAKENKDFEIKAAAFEGAVTDADVLATLPTYDEAIARLMMCMKEASAGKLVRTIAAVRDQKEEAAA
protein production: failed

MTVQTAIFDLIKQAKTIIIHRHQRPDPDAIGSQLGLAAIIKASFPAKRVLTPGKQYHGFDWLGQMDEVTEADYQDALVLILDTANQPRIDGELWNQGKTIVKIDHHPNDDAFGDPQWVDVDASSTSEMIYNWYAPLAAELTLTANAARLLYAGIVGDTGRFLYSATKPSTMRAAAALMEAGADAEAVNRIEDTITLPVARLSAYVYEHLTQLDSGAAYVILTNAILDSFAIGDASTAGVVPLPGRIDTVKCWAIFVQQKEGDFRIRLRSKGPSINGVAKNHDGGGHALASGAKAKDQQEIETVVRELDQVASQYEKEVLEHHHHHH
protein production: failed

MTVRLTFMCATAGGTTRDAVFGDGLLSERGLRRARAAGATLPPYSLAIRAPSVRCAQTAYALGLPTTLEPALRDLDYGTWRGRTVGEVVADEPYGYSAWLTDPDAAPHGGESVRRLCRRIANWLSSVPPYPGRALVITEPSVVRASLVHALSAPVTAFRHFDVPPLSTVSLTLSDGHWIVRPGRVTPDRVGTSRAVPTPYDAAEGRTALLWGEATPA
protein production: failed

MTVRSRFFTEAEGKAVGVENAAAKGDVLLVCEHASATIPQKYGTLGLSADVLSSHAAWDPGALAVARLLSEKFHATLVYQRFSRLVYDCNRPPESPSAMPVKSEIYDIPGNFDLDEAERFARTSALYVPFHDRVSEIIAERQAAGRKVVVVTIHSFTPVYHGRFREVEIGILHDNDSRLADAMLAGAEGASLTVRRNDPYGPEDGVTHTLRLHALPDGLLNVMIEIRNDLIANEGEQAAIAGFLHELMGKALSSIEE
protein production: not failed
